Results on 34 molecules are retold here after publication PMC6565636, “Rif1 promotes association of G-quadruplex (G4) by its specific G4 binding and oligomerization activities”.

For series [1], the target named is T1, Rif1 full-length (His6-Rif1-FLAG3) (Schizosaccharomyces pombe (fission …, UniProt Q96UP3 1-1400)).
T1 sequence: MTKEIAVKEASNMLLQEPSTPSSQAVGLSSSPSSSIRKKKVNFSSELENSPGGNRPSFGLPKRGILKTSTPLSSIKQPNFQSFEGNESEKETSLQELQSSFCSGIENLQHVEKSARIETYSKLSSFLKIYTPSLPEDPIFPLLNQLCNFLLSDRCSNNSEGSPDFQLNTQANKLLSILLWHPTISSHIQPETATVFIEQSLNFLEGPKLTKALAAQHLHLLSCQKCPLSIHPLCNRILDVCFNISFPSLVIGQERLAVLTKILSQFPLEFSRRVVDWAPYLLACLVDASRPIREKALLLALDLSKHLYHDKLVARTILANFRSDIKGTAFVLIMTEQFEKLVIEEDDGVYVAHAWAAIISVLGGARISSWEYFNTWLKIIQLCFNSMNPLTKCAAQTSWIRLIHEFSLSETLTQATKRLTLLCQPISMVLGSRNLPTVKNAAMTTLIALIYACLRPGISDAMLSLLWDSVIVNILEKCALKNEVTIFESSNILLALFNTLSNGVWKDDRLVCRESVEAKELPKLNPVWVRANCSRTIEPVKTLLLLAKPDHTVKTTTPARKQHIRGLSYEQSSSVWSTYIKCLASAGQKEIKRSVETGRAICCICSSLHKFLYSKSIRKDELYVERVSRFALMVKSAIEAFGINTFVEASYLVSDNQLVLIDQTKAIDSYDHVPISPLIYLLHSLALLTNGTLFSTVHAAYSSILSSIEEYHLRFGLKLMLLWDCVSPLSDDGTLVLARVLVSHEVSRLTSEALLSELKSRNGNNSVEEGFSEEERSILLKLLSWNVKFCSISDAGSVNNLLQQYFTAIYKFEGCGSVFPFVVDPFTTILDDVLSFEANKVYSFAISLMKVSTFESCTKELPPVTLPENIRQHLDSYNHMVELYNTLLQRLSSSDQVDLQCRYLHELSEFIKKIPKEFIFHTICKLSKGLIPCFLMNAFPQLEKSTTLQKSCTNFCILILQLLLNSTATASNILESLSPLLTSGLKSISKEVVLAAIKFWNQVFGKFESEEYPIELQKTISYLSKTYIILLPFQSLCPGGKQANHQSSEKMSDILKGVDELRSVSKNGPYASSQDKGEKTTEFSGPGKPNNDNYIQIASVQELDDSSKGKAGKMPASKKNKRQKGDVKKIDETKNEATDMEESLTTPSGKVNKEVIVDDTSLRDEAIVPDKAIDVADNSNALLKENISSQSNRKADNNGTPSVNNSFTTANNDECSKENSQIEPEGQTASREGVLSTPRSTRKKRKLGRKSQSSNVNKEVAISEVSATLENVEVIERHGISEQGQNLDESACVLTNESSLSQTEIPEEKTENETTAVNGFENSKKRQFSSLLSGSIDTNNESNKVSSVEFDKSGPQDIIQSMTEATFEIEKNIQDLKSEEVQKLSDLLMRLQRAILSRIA
Briefly: EMSA; KCl; EMSA with oligos heat-denatured and renatured in 50 mM KCl/40% PEG200 (Fig 5: 50 mM Tris-HCl pH 7.5 with KCl, NaCl or none); gel shift buffer 40 mM Hepes-KOH pH 7.6, 50 mM KCl, 1 mM EDTA, 10% glycerol, 0.01% Triton X-100; pull-down 30 min at room temperature; +++/++/+ = >50/>16/>6% shift at 1 nM Rif1. The settings on record: protein: recombinant, tags: N-term His6, C-term FLAG3, label: 32P.

Series [2] deals with T1, Rif1 full-length (His6-Rif1-FLAG3). Briefly: EMSA; as efficient as or slightly better than AGTGn; EMSA with oligos heat-denatured and renatured in 50 mM KCl/40% PEG200 (Fig 5: 50 mM Tris-HCl pH 7.5 with KCl, NaCl or none); gel shift buffer 40 mM Hepes-KOH pH 7.6, 50 mM KCl, 1 mM EDTA, 10% glycerol, 0.01% Triton X-100; pull-down 30 min at room temperature; +++/++/+ = >50/>16/>6% shift at 1 nM Rif1. The settings on record: protein: recombinant, tags: N-term His6, C-term FLAG3, label: 32P. (A gel shift assay detects complexes by their altered migration in electrophoresis.)

The target is the same in series [3]. Briefly: EMSA; KCl; three repeats most efficient; EMSA with oligos heat-denatured and renatured in 50 mM KCl/40% PEG200 (Fig 5: 50 mM Tris-HCl pH 7.5 with KCl, NaCl or none); gel shift buffer 40 mM Hepes-KOH pH 7.6, 50 mM KCl, 1 mM EDTA, 10% glycerol, 0.01% Triton X-100; pull-down 30 min at room temperature; +++/++/+ = >50/>16/>6% shift at 1 nM Rif1. Conditions: protein: recombinant; tags: N-term His6, C-term FLAG3; label: 32P.

B1: Htelo3 (structured_DNA)
DNA: GGGTTAGGGTTAGGGTTAGGGT
Take B1: the binding result in series [1] (hybrid G4 in K+ (CD)) is “no binding”.

B2: T6(GA)12 (ssDNA)
DNA: TTTTTTGAGAGAGAGAGAGAGAGAGAGAGA
Consider B2, for which the binding result in series [1] (no G4) is reported as “no binding”.

B3: (ACAGGGGG)3 (structured_DNA)
DNA: ACAGGGGGACAGGGGGACAGGGGG
B3: the binding result in series [2] was “binds”.

B4: (AGTGGGGG)2 (structured_DNA)
DNA: AGTGGGGGAGTGGGGG
As to B4, in series [1], the binding result is recorded as “binds”.

B5: Htelo4(GGGGGG) (structured_DNA)
DNA: AGGGCTAGGGCTAGGGGGG
Take B5: in series [1] (hybrid G4), the binding result is on record as “binds”.

B6: (ACAGGGG)3 (structured_DNA)
DNA: ACAGGGGACAGGGGACAGGGG
With B6, in series [2], the binding result is given as “binds”.

B7: Htelo1_no_spacer_2 (structured_DNA)
DNA: TAGGGTTAGGGTTAGGGGGG
As to B7, the binding result in series [1] (mix G4 in KCl, antiparallel in NaCl) is “binds”.

B8: DX2 (structured_DNA)
DNA: ATCTGAGAATCAGAT
Consider B8, for which the binding result in series [1] (hairpin) is recorded as “no binding”.

B9: AGTGGG (ssDNA)
DNA: AGTGGG
As for B9, the binding result in series [1] was “no binding”.

B10: (AGTGGG)4 (structured_DNA)
DNA: AGTGGGAGTGGGAGTGGGAGTGGG
As to B10, the binding result in series [1] was “binds”.

B11: T95_2T_G (structured_DNA)
DNA: TTGGGGTGGGTGGGTGGGT
As to B11, the binding result in series [1] (parallel G4) was “no binding”.

B12: CEB1_deltaGG (structured_DNA)
DNA: AGGGGGGAGGGAGGGT
Take B12: the binding result in series [1] (parallel G4) is “binds”.

B13: CEB1_TTA (structured_DNA)
DNA: AGGGTTAGGGAGGGAGGGTGG
For the molecule B13, the binding result in series [1] (parallel G4 in KCl) is listed as “binds”.

B14: (AGTGGGG)2 (structured_DNA)
DNA: AGTGGGGAGTGGGG
Turning to B14, the binding result in series [1] is recorded as “binds”.

B15: Htelo4(GGGGGG)_3nt_spacer (structured_DNA)
DNA: AGGGCTAGGGCTACTAGGGGGG
As to B15, in series [1] (hybrid G4 in KCl, antiparallel in NaCl), the binding result is listed as “binds”.

B16: T95_2T_GG (structured_DNA)
DNA: TTGGGGGTGGGTGGGTGGGT
As to B16, the binding result in series [1] (parallel G4) is recorded as “no binding”.

B17: Htelo1_A (structured_DNA)
DNA: TAGGGAGGGTTAGGGTTAGGG
On to B17, for which the binding result in series [1] (hybrid or mix G4) is “no binding”.

B18: DX1 (dsDNA)
DNA 1: CGCGAATTCGCG
DNA 2: CGCGAATTCGCG
B18: the binding result in series [1] (blunt, self-complementary) is recorded as “no binding”.

B19: Htelo4 (structured_DNA)
DNA: AGGGCTAGGGCTAGGGCTAGGG
For B19, the binding result in series [1] (antiparallel G4 (chair)) is listed as “no binding”.

B20: ACAGGGGG (structured_DNA)
DNA: ACAGGGGG
Consider B20, for which the binding result in series [2] (slow-migrating multimers) is reported as “binds”.

B21: HT (structured_DNA)
DNA: TTGGGTTAGGGTTAGGGTTAGGGA
B21: the binding result in series [1] (hybrid G4) is on record as “no binding”.

B22: (AGTGGGG)4 (structured_DNA)
DNA: AGTGGGGAGTGGGGAGTGGGGAGTGGGG
Consider B22, for which the binding result in series [1] is recorded as “binds”.

B23: CEB1_A (structured_DNA)
DNA: AGGGAGGGAGGGAGGGTGG
With B23, the binding result in series [1] (parallel G4) is given as “binds”.

B24: (AGTGGG)3 (structured_DNA)
DNA: AGTGGGAGTGGGAGTGGG
As to B24, the binding result in series [3] is on record as “binds”.

B25: Htelo4_3nt_spacer (structured_DNA)
DNA: AGGGCTAGGGCTACTAGGGCTAGGG
On to B25, for which, in series [1] (antiparallel G4), the binding result is reported as “no binding”.

B26: (AGTGGGGG)4 (structured_DNA)
DNA: AGTGGGGGAGTGGGGGAGTGGGGGAGTGGGGG
On to B26, for which the binding result in series [1] is listed as “binds”.

B27: CEB1_TA (structured_DNA)
DNA: AGGGTAGGGAGGGAGGGTGG
In the case of B27, the binding result in series [1] (parallel G4 in KCl) is “binds”.

B28: Pu24T (structured_DNA)
DNA: TGAGGGTGGTGAGGGTGGGGA
Turning to B28, the binding result in series [1] (parallel G4) was “binds”.

B29: Rif1-8 (70 nt) (structured_DNA)
DNA: GTGGGGGATGTGGGATAGACTATTTTAGACTTGAGACTGTGTATTCACTTAAAAGTGCTATGTGGGGGCA
Turning to B29, the binding result in series [1] (parallel G4) is on record as “binds”.

B30: ACAGGGG (structured_DNA)
DNA: ACAGGGG
Take B30: the binding result in series [2] is “binds”.

B31: Htelo1_no_spacer (structured_DNA)
DNA: TAGGGGGGTTAGGGTTAGGG
With B31, the binding result in series [1] (parallel G4) is “binds”.

B32: 93del (structured_DNA)
DNA: GGGGTGGGAGGAGGGT
In the case of B32, in series [1] (parallel G4 (dimeric)), the binding result was “binds”.

B33: CEB1 (structured_DNA)
DNA: AGGGGGGAGGGAGGGTGG
Turning to B33, the binding result in series [1] (parallel G4 (dimeric)) is on record as “binds”.

B34: (AGTGGG)2 (structured_DNA)
DNA: AGTGGGAGTGGG
B34: in series [1], the binding result is on record as “binds”.
